Data from the nanobody polyreactivity screen of Harvey et al. (2022).

test: yeast display, Sf9 membrane polyspecificity reagent, FACS + sequencing; frameworks hold sequencing errors
How it was run: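 A synthetic nanobody library was expressed on Saccharomyces cerevisiae BJ5465 by galactose induction for 36–48 hours. The library was stained for 1 hour at 4 °C with 10% biotinylated, detergent-solubilized Sf9 membrane reagent and enriched with streptavidin microbeads before FACS. Low and high (top ~1%) gates were set on anti-HA fluorescence for expression and streptavidin fluorescence for reagent binding, and each polyreactivity label reflects the gate of origin.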

Row | Sequence | polyreactivity (PSR sort gate)
1 | QVQLVESGGGLVQAGGSLRLSCAASGSTQYWNAMGWYRQAPGKERELVAAISRSGGSTYYADSVKGRFTISRDNAKNTVYLQINSLKPEDTAVYYCAARRYVPHTEYYYWGQGTQVTVSS | low polyreactivity
2 | QVQLVESGGGLVQAGGSLRLSCAASGRIFKYYTLGWYRQAPGKERELVAAITSRGGTTYYADSVKGRFTISRDNAKNTVYLQMNSLKPEDTAVYDCAKKRVFRHYYYYATYDYWGQGTQVTVSS | low polyreactivity
3 | QVQLEESGGGLVQAGGSLRLSCAASGLTFRIYAMGWYRQAPGKERELVAAISYRGGSTYYADSVKGRFTISRDNAKNTVSLQMNSLKPEDTAVYYCAAGFVLNGIRYDFWGQGTQLTVSS | high polyreactivity
4 | QVQLVESGGGLVQAGGSLRLSCAASGRIFAYYAMGWYRQAPGTERELVAAITRRSGGITYYADSVKGRFTISRDNAKNTVYLQMNSLKPEDTAVYYCAARYRLSGKYRFTYDYWGQGTQVTVSS | high polyreactivity
5 | QVQLVESGGGLVQAGGSLRLSCAASGRIFVWNAMGWYRQAPGKERELVAAITSSGGNTYYADSVKGRFTISRDNAKNNVYLQMNSLKQEDTAVYYCAAAGGAWARYRFNYWGQGTQVTVSS | high polyreactivity
6 | QVQLVESGGGLVQAGGSLRLSCAASGITFKRYAMGWYRQAPGKERELVAAITISAGSTYYADSVKGRFTISRDNAKNNVYLQMNSLKPEDTAVYYCAAESYGSWYYYWGQGTQVTVSS | high polyreactivity
7 | QVQLVESGGGLVQAGGSLRLSCAASGRTFTHNVMGWYRQAPGKERELVAGISSTGGSTYYADSVKGRFTISRDNAKNTVYLQMNSLKPEDTAVYYCAVIGYHYSAISPPSQTRQGYDYWGQGTQVTLSS | low polyreactivity
8 | QVQLVESGGGLVQAGGSLRLSCAASGSIFYYNAMGWNRQAPGKERELVAASTTRGGSTYYADSVKGRFTISRDNAKNTVYLQMYSLKPVDTEVYYCARSSRGKLDYWGQGTQVTVSS | low polyreactivity
9 | QVQLVESGGGLVQAGGSLRLSCAASGYTFVKYAMGWYRQAPGKERELVASISWSGGRTYYADSVKGRFTISRDNAKNTVYLQMNSLKPEDTAVYYCATRPTWYSYDYWGHGTQVTVSS | high polyreactivity
10 | QVQLVESGGGLVQAGGSLRLSCAASGGTFLYNAMGWYRQAPGKERELVAAISRSGGRTDYADSVKGRFTISRDNAKNTVYLQMNSLKPEDTAVYYCATPGTYYTHRYRYDYWGHGTQVTVSS | high polyreactivity
11 | QVQLVESGGGLVQAGGSLRLSCAASGRILCGNTMGWYRQAPGKERELVAAISWNGGGTYYADSVKGRFTISRDNAKNTVYLQMNSLKPEDTAVYYCAAYKEPYYEEYGYWGQGTQVTVSS | low polyreactivity
12 | QDQLVESGGGLVQAGGSLSLICDASGRTFSTKFMGWYIQAAGKERQLVAAITTSSSRTYYADSVKGRFTISRDNANHTVYLLMNSLKPEDTAVYYCAARIHGSWSFDYWGQGTQVTLSS | low polyreactivity
13 | QFQLVESGGGLVQAGGSLRLSCAASGRTLYGYAMGLYRQAPGKERELVAAISGSGTITYYADSVKGRFTISRDNAKNTVYLQMNSLKPEDTAVYYCNKRRAGQSRRVDSWGQGTQVTVSS | high polyreactivity
14 | QVQLVESGGGLVHAGGRLRLSCAASGRIFGRNAMGWYRPPPGKERELVAAITKSGGRTYYADSVKGRFSISRVNAKNNVYFQMICLKPEDNAVYYCNRIVTFGWQYDFDFWGQGTQVTVSS | high polyreactivity
15 | QVQLVESGGGLVQAGGSLRLSCAASGRTFFVYTMGWYRQAPGKERELVAAITSDTSTTYADSVKGRFTISRDNAKNTVYLQMNSLKPEDTAVYYCAAEGYVGYYDYDYWGQGTQVTVSS | low polyreactivity
16 | QVQLVESGGGLVQAGGSLRLSCAASGLIFGYNAMGWYRQAPGKERELVAGISSGGSTNYADSVKGRFTISRDNAKNTVYLQMNSLKPEDTAVYYCNADGYLAERFVIRLDEYRDYDYWGQGTQVTVSS | low polyreactivity

Row | Sequence | polyreactivity (PSR sort gate)
17 | QVQLVETGGGLVQAGGSLRLSCADSGSTFPGNGMVWSRQAPGKERELVAGISSGGRTYYADSVKGRVTISRDNAKNTVYLQLNRLKPEDTAVYYCATEGDYFAKYDRMDYWGQGTQVTVSS | low polyreactivity
18 | QVQLVESGGGLVQAGGSLRLSCAASGSIFARYAMGWDRQAPGKERELVAAISSRGGSTYYADSVKGRFTISRDNAKNTVYLQMNSLKPADTAVYYCNKGYLVRQGDYWGQGTQVTVSS | high polyreactivity
19 | QVQLVESGGGLVQAGGSLRLSCAASGFIFYHNAMGWYRQAPGKERELVAAISYSGGSTYYADSVKGRFTISRVNAKNTVYLQMNSLKPEDTAVYFCATPQTRTYDYWGQGTQVTVSS | high polyreactivity
20 | QVQLVESGGGLVQAGGSLRLSCAASGSTFGNNAMGWYRQAPGKERELVATIDDTTVSTNYADSVKGRFTISRDNAKNSVYLQMNSLKPEDTAVYYCAADDVDGSPYDYWGQGTQVTVSS | low polyreactivity
21 | QVHLVESGGGLVQAGGSLRLSCAASGSTFRSNAMGWYRQAPGKERELVASITSRGGSTYYADSVKGRFTISRDNAKNTVYLQMNSLKPEDTAVYYCATARSYLTYSYHYDYWGQGTQVTVSS | low polyreactivity
22 | QDQLVESRGGLVQAGGSLRLSCAASGSTFVNNAMGWYRQAPGKERELVAAIRSSDGRTYYADSVKGRFTISRDNAKNTVYLQMNSLKPEDSAVYYCATAVGTKYRTRIFEFYYWGQGTQVTVSS | high polyreactivity
23 | QVQLVESGGGLVQAGGSLRLSCAASGFTFGSNAMGWYRQAPGKERELVATISRRGGRTYYADSVKGRFTISRDNAKNTVYLQMNSLKPEDTAVYYCAAYLRPGGNYYWGQGTQVTVSS | high polyreactivity
24 | QVQLVEEGGGLVQAGGTRRLSCAASGSTFTVYVMGWYRQAPGQERELVAAINLSGGRTYYADSVKGRFTISRDNAKNTVYLQMNSLKPEDTAVYYCAADGSTWGDYRTYGYWGQGTLVTVSS | low polyreactivity
25 | QVQLVESGGGLVQAGGSLRLSCAASGFTFKYYAMGWYRQAPGKERELVAVISTRGTNTYYADSVKGRFTISRDNAKNTVYLQMNSLKPEDTAVYYCAAVLGGNSRLDYWGQGTQVTVSS | high polyreactivity
26 | QVQLVESGGGLVQAGGSLRLSCAASGLIFVSYAMGWYRQAPGKERELVASITYSGGGTYYADSVKGRFTISRDYAKNTVYLQMNSLKPEDNAVYYCNADVCWCYSVYREYCMDYWGQGTQVTVSS | low polyreactivity
27 | QVQLVESGGGLVKAGGSLRLSCAASGSTFLWTTMGWYRPAPGKERELVAAISRSGGSTYYADSVKGRFTISRDNAKNTVYLQMISLKPEDTAVYYCAARTAGPWSWYHYWGQGTQVTVSS | high polyreactivity
28 | QVQLVESGGGLVQAGGSLRLSCAASGRIFRVYAMGWYRQAPGKETELVAAISRTGGSTYYADSVKGRFTISRDNAKNTVYLQMNSLKPEDTAVYYCAALVNGNFPTVDYWGQGTQVTVSS | high polyreactivity
29 | QVQLVESGGGLVQAGGSLRLSCAASGSIFASYAMGWYRQPPGKERELVAAISIGGTTNYADSVKGRFTISRDNAKNTVYLQMYSLKPEDTAVYYCNAGRWLFNYYYWIYDVRYDYWGQGTQVTVSS | high polyreactivity
30 | QVQLVESGGGLVQAGGSLRLSCAASGFTFGYYTMGWYRQAPGKERELVAAISSSGGRTYYADSVKGRFTISRDNAKNTVYLQMNSLKPEDTAVYYCAARARWAGLRYTRYYYWGQGTQVTVSS | high polyreactivity
31 | QVQLVESGGGLVQAGGSLRLSCAASGSIFYTNAMGWYRQAPGKERELVAAIRWSGGRTYYADSVKGRFTISRDNAKNSVYLQMNSLKPEDTAVYYCNKVPRTPIPYKYGYWGQGTQVTVSS | high polyreactivity
